The source of these data is publication PMC7870846, “Incorporation of sensing modalities into de novo designed fluorescence-activating proteins” (Nature Communications, 2021).

Test [1] can be described thus: Photophysical characterization: absorbance, excitation/emission spectra, extinction coefficients, quantum yields. The class given is physicochemical. As to the method:
Protein preparation: mFAP2a, mFAP2b, and mFAP10 were produced by large-scale protein purification and SEC purification, and dialyzed overnight into DPBS that was adjusted to pH 7.40 using NaOH.
Chromophore preparation: DFHBI (Lucerna) and DFHBI-1T (Lucerna) were dissolved to 20.0 mM in 100% DMSO, and diluted in DPBS (pH 7.40) to measure absorbances on a Jasco V-750 spectrophotometer at peak absorbance wavelengths (417 nm for DFHBI and 422 nm for DFHBI-1T). Following background subtraction of identical buffer without chromophore, Beer’s Law was used to calculate the molar chromophore concentrations of the stock solutions using previously reported extinction coefficients.
Preparation of protein–chromophore complexes: For quantum yield measurements, 1.00 μM, 836 nM, or 919 nM chromophore solutions in DPBS (pH 7.40) at 4.00 mL final volumes were prepared for the following eight conditions: DFHBI only, DFHBI-1T only, 43.5 µM 6xHis-mFAP10 with DFHBI, 43.5 µM 6xHis-mFAP10 with DFHBI-1T, 134 μM 6xHis-mFAP2a with DFHBI, 134 μM 6xHis-mFAP2a with DFHBI-1T, 206 μM 6xHis-mFAP2b with DFHBI, and 206 μM 6xHis-mFAP2b with DFHBI-1T.
Extinction coefficients: Absorbance spectra of protein–chromophore complexes were first measured with a Thermo Scientific BioMate 3S UV–Vis Spectrophotometer (1 nm interval, 800 nm min^−1). The extinction coefficients were then calculated using Beer’s Law:12 A=ε⋅b⋅c, where A is peak absorbance, ε is extinction coefficient, b is path length (1 cm), and c is concentration (1.00 μM, 836 nM, or 919 nM).
Relative quantum yield: A Perkin-Elmer LS-B Luminescence Spectrophotometer (10 nm bandwidth, 1 nm interval, 100 nm min^−1) was used. The fluorescence emission spectra of the protein–chromophore complexes (in DPBS, pH 7.40) and reference dye Acridine Yellow G (in methanol) were first obtained, and the quantum yield was then calculated using the equation[53]:13 ϕc=ϕr⋅1−10^−Ar(λex)/1−10^−Ac(λex)⋅∫Fc(λ)⋅dλ/∫Fr(λ)⋅dλ⋅nc2/nr2, where ϕ is quantum yield, A(λex) is absorbance at the excitation wavelength λex ( λex = 440 nm), F is fluorescence emission, n is refractive index of the solution (1.3350 for DPBS at pH 7.40 and 1.3284 for methanol), and the subscripts “c” and “r” refer to the protein–chromophore complex measured and the reference dye, respectively. […]
Absolute quantum yield: An integrating sphere instrument (Hamamatsu C9920-12) (6 nm excitation bandwidth, 1 nm interval) and a high-sensitivity photonic multi-channel analyzer (Hamamatsu C10027-01) were used to measure a light emission spectrum. Absolute quantum yields were measured for solutions of protein–chromophore complexes in DPBS (pH 7.40) in which ≥95% of the total chromophore was occupying the protein-binding pocket (Table 1). […]

The nature of test [2]: Ca2+-responsive mFAP Ca2+ titrations. The class given is binding. The settings on record: Ca2+ titration with excess DFHBI. In a few lines:
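Purified protein at 500 nM with 5.00 μM DFHBI titrated over eleven 10-fold CaCl2 dilutions plus a no-Ca2+ condition in high-salt Tev cleavage buffer; endpoint fluorescence at ex 484/em 508 nm, protein-free background subtracted. Triplicate means fit to a single-site isotherm, Hill coefficient 1, for Kd.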

B1: mFAP2b: mFAP2.5 with V67I, "b" for bright (protein)
chain: SRAAQLLPGTWQVTMTNEDGQTSQGQWHFQPRSPYTMDIVAQGTISDGRPIVGYGKATVKTPDTLDIDITYPSLGNIKAQGQITMDSPTQFKWDATTKGENDFHGRLTGTLQRQE
With B1, the “brighter fluorescence with DFHBI than DFHBI-1T” value in test [1] is reported as ~ 30 fold. The “Ca2+-responsiveness / allostery between DFHBI and Ca2+ binding” value in test [2] is listed as “lack of Ca^2+-responsiveness”.
